Data on 6 molecules can be found in patent publication US20250145711A1 (Janssen / Centocor, published 2025).

B1: BC3B129 (bispecific antibody, human IgG1, kappa, L234A L235A)
chain: EIVLTQSPATLSASPGERVTLSCSASSSVSYMNWYQQKPGQAPRRWIYDSSKLASGVPARFSGSGSGRDYTLTISSLEPEDFAVYYCQQWSRNPPTFGGGTKVEIKGGSEGKSSGSGSESKSTGGSQVQLVQSGAEVKKPGSSVKVSCKASGYTFTRSTMHWVRQAPGQGLEWMGYINPSSAYTNYAQKFQGRVTLTADKSTSTAYMELSSLRSEDTAVYYCASPQVHYDYSGFPYWGQGTLVTVSSEPKSSDKTHTCPPCPAPEAAGGPSVFLFPPKPKDTLMISRTPEVTCVVVSVSHEDPEVKFNWYVDGVEVHNAKTKPREEQYNSTYRVVSVLTVLHQDWLNGKEYKCKVSNKALPAPIEKTISKAKGQPREPQVYVYPPSREEMTKNQVSLTCLVKGFYPSDIAVEWESNGQPENNYKTTPPVLDSDGSFALVSKLTVDKSRWQQGNVFSCSVMHEALHNHYTQKSLSLSPG
heavy: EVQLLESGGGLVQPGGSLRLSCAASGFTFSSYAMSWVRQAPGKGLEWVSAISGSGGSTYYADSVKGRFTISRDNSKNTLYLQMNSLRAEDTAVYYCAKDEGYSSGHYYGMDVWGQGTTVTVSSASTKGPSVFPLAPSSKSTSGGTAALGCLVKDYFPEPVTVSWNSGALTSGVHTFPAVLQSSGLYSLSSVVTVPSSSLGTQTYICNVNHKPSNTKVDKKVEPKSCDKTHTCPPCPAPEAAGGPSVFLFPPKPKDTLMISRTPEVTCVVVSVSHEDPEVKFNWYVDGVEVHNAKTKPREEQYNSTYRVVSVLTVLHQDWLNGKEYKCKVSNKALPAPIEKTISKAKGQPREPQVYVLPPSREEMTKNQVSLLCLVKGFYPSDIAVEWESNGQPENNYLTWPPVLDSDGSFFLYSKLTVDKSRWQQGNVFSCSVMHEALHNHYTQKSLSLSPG
light: EIVLTQSPGTLSLSPGERATLSCRASQSISSSFLTWYQQKPGQAPRLLIYGASSRATGIPDRFSGGGSGTDFTLTISRLEPEDFAVYYCQHYGSSPMYTFGQGTKLEIKRTVAAPSVFIFPPSDEQLKSGTASVVCLLNNFYPREAKVQWKVDNALQSGNSQESVTEQDSKDSTYSLSSTLTLSKADYEKHKVYACEVTHQGLSSPVTKSFNRGEC
notes: IgG1 BCMAxCD3; HC1: CD3B2089-N106S LH scFv-Fc; also called BC3B129.001; B2089 LH NtoS
B2: PSMB1052 (bispecific antibody)
heavy: not shown
light: not shown
chain: SYELTQPPSVSVAPGQTARITCGGNNIGSKSVHWYQQKPGQAPVLVVYDDSDRPSGIPERFSGSNSGNTATLTISRVEAGDEADYYCQVWDSSTDHVVFGGGTKLTVLGGSEGKSSGSGSESKSTGGSEVQLVESGGGVVQPGRSLRLSCAASGFTFSSYGMNWVRQAPGKGLEWVAVTSYDGSNKYYADSVKGRFTISRDISKNTLYLQMSSLRAEDTAVYYCARDPYSSSWNGAFDIWGPGTMVTVSSEPKSSDKTHTCPPCPAPEAAGGPSVFLFPPKPKDTLMISRTPEVTCVVVSVSHEDPEVKFNWYVDGVEVHNAKTKPREEQYNSTYRVVSVLTVLHQDWLNGKEYKCKVSNKALPAPIEKTISKAKGQPREPQVYVLPPSREEMTKNQVSLLCLVKGFYPSDIAVEWESNGQPENNYLTWPPVLDSDGSFFLYSKLTVDKSRWQQGNVFSCSVMHEALHNHYTQKSLSLSPG
notes: HC1 (ZWA): B23B62-Fab; LC2 is NA
B3: PSMB1075 (bispecific antibody, human IgG1, kappa, L234A L235A)
heavy: not shown
light: not shown
chain: EVQLVESGGGVVQPGRSLRLSCAASGFSFSGYGMHWVRQAPGKGLEWVAVISYDGSNKYYADSVKGRFTISRDNSKNTLYLQMNSLRVEDTAVYYCARDRIWGSRGYYYGMDVWGQGTTVTVSSGGSEGKSSGSGSESKSTGGSQSALTQPASVSGSPGQSITISCTGASSDVGGYNYVSWYQQHPGKAPKLMIYEVSNRPSGVSNRFSGSKSGNTASLTISGLQAEDEADYYCSSYTITSTLVFGGGTKLTVLEPKSSDKTHTCPPCPAPEAAGGPSVFLFPPKPKDTLMISRTPEVTCVVVSVSHEDPEVKFNWYVDGVEVHNAKTKPREEQYNSTYRVVSVLTVLHQDWLNGKEYKCKVSNKALPAPIEKTISKAKGQPREPQVYVLPPSREEMTKNQVSLLCLVKGFYPSDIAVEWESNGQPENNYLTWPPVLDSDGSFFLYSKLTVDKSRWQQGNVFSCSVMHEALHNHYTQKSLSLSPG
notes: as for B2
B4: PSMB1060 (bispecific antibody, human IgG1, kappa, L234A L235A)
heavy: not shown
light: not shown
chain: EIVLTQSPGTLSVSPGERATLSCRASQSVRSNLAWYQQKPGQAPRLLIYGASTRATGIPARFSGSGSGTEFTLTISSLQSEDFAVYYCHQYNDWPPYTFGQGTKLEIKGGSEGKSSGSGSESKSTGGSQVQLQESGGGVVQPGRSLRLSCAASGFTFSTYGMHWVRQAPGKGLEWVAFISYDGSNKYYADSVKGRFTISRDNSKHTLYLQMNSLRAEDTAVYYCAGRDNLRFLEWFMDVWGQGTTVTVSSEPKSSDKTHTCPPCPAPEAAGGPSVFLFPPKPKDTLMISRTPEVTCVVVSVSHEDPEVKFNWYVDGVEVHNAKTKPREEQYNSTYRVVSVLTVLHQDWLNGKEYKCKVSNKALPAPIEKTISKAKGQPREPQVYVLPPSREEMTKNQVSLLCLVKGFYPSDIAVEWESNGQPENNYLTWPPVLDSDGSFFLYSKLTVDKSRWQQGNVFSCSVMHEALHNHYTQKSLSLSPG
notes: as for B2
B5: PSMB1069 (bispecific antibody, human IgG1, kappa, L234A L235A)
heavy: not shown
light: not shown
chain: QVQLVESGGGEVQPGRSLRLSCAASGFSFSGYGMHWVRQAPGKGLEWVAVMSYDGSNRFYVDSVRGRFSISRDNSKNTLYLQMNSLRPEDTAVYYCARDTVWGSHPDAFDIWGQGTVVTVSSGGSEGKSSGSGSESKSTGGSQSVLTQPPSVSVAPGQTARITCGGNNSGSKSVHWYQQKPGQAPVLVVYDDSDRPSGIPERFSGSNSGNTATLTISRVEAGDEADYYCQVWDSSSDHGVFGGGTKLTVLEPKSSDKTHTCPPCPAPEAAGGPSVFLFPPKPKDTLMISRTPEVTCVVVSVSHEDPEVKFNWYVDGVEVHNAKTKPREEQYNSTYRVVSVLTVLHQDWLNGKEYKCKVSNKALPAPIEKTISKAKGQPREPQVYVLPPSREEMTKNQVSLLCLVKGFYPSDIAVEWESNGQPENNYLTWPPVLDSDGSFFLYSKLTVDKSRWQQGNVFSCSVMHEALHNHYTQKSLSLSPG
notes: as for B2
B6: PSMB1047 (bispecific antibody, human IgG1, kappa, L234A L235A)
heavy: not shown
light: not shown
chain: QSVLTQPPSVSVAPGQTARITCGGNNSGSKSVHWYQQKPGQAPVLVVYDDSDRPSGIPERFSGSNSGNTATLTISRVEAGDEADYYCQVWDSSSDHGVFGGGTKLTVLGGSEGKSSGSGSESKSTGGSQVQLVESGGGEVQPGRSLRLSCAASGFSFSGYGMHWVRQAPGKGLEWVAVMSYDGSNRFYVDSVRGRFSISRDNSKNTLYLQMNSLRPEDTAVYYCARDTVWGSHPDAFDIWGQGTVVTVSSEPKSSDKTHTCPPCPAPEAAGGPSVFLFPPKPKDTLMISRTPEVTCVVVSVSHEDPEVKFNWYVDGVEVHNAKTKPREEQYNSTYRVVSVLTVLHQDWLNGKEYKCKVSNKALPAPIEKTISKAKGQPREPQVYVLPPSREEMTKNQVSLLCLVKGFYPSDIAVEWESNGQPENNYLTWPPVLDSDGSFFLYSKLTVDKSRWQQGNVFSCSVMHEALHNHYTQKSLSLSPG
notes: as for B2

T1 sequence (P07766 23-207 limits assumed): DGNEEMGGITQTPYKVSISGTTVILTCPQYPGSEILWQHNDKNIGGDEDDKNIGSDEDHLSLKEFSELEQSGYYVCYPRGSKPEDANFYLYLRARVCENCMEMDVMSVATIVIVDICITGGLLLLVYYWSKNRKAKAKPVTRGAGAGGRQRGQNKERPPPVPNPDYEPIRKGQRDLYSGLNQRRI

One experiment addresses T1, Human CD3 epsilon (CD3ε), on primary human pan T cells (human, UniProt P07766 23-207). In words: cell-based or functional assay.
Regarding B1, the “H929 Killing EC50” value is 10 nM.

In a further experiment the target is T2, human PSMA on prostate cancer cell lines (22RV1, C4-2B) (human, UniProt Q04609 1-750).
T2 construct: also called PSMA-expressing cell lines
T2 sequence (Q04609 whole entry): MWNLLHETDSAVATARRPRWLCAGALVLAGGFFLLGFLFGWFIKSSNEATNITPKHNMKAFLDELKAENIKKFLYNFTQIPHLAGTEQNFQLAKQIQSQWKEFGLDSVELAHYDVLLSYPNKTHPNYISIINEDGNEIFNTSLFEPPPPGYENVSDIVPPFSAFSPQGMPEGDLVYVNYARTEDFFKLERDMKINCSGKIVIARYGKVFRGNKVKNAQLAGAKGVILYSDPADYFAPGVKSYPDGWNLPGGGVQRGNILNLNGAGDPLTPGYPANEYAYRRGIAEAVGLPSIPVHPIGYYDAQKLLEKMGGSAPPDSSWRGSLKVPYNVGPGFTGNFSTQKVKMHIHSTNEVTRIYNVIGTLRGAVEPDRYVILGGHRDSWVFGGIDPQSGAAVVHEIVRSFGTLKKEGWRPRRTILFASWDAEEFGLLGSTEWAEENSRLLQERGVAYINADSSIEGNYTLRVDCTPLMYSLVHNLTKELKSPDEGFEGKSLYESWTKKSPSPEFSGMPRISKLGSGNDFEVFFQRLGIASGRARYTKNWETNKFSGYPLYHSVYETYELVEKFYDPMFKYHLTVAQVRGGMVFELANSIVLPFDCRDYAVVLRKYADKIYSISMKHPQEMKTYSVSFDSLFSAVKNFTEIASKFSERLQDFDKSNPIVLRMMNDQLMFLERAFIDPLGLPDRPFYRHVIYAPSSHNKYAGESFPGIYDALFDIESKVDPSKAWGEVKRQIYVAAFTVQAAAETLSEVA
Briefly: flow cytometry on C4-2B cells, four-parameter fit. Here is the method:
Molecule concentrations ranged from 500-0 nM over 12-points at 3-fold dilution. […] Values reported in the Table 69 were generated by fitting the data to a four-parameter function for ligand binding generating values for y-min, y-max, EC50, and Hill. EC90 were calculated using the equation EC90=[…]\hat{ }(1/Hill)*EC50.
(Flow cytometry measures light scatter and fluorescence of single cells or particles in a stream.)
Turning to B2, it took 13 nM to reach a half-maximal effect (EC50); the EC90 – broadly, the concentration at which the effect reaches the 90% level – came to 100 nM; the Y-max was 1.5e+06; the Y-min amounted to 68000.
For B3 the same measures were 30 nM, 156 nM, 1.3e+06 and 66000.
In the same order, the values of B4 are 11 nM, 59 nM, 1.6e+06 and 86000.
In the same order, the values of B5 are 44 nM, 254 nM, 3.3e+06 and 87000.
Regarding B6, the concentration for a half-maximal effect (EC50) (as a rule, the concentration at which the effect is half-maximal) came to 22 nM; the EC90 amounted to 71 nM; the Y-max came to 1.6e+06; the Y-min was found to be 79000.

The next experiment deals with T3, recombinant human PSMA (human, UniProt Q04609 44-750).
T3 construct: also called hu PSMA; prostate-specific membrane antigen
T3 sequence (Q04609 44-750 limits assumed): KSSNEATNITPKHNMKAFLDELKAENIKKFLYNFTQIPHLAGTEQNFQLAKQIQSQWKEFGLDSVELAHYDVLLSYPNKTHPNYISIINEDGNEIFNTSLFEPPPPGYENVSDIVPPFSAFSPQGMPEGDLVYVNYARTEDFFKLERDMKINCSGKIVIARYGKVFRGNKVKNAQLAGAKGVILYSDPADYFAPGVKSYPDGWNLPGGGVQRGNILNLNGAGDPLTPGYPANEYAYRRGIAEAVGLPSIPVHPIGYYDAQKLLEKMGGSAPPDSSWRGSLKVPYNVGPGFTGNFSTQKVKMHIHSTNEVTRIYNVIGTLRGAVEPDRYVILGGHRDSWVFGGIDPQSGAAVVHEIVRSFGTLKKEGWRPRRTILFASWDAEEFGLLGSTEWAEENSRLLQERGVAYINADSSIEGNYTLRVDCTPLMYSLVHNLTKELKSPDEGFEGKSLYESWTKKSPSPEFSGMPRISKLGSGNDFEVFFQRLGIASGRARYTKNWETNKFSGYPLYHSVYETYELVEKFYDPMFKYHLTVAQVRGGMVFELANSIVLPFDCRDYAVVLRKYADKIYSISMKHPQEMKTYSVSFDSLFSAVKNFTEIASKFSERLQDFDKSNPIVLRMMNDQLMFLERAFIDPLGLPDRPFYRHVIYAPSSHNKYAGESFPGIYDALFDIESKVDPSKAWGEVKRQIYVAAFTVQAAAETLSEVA
In words: SPR (Biacore 8K), antibody captured on anti-Fc, PSMA in solution. As to the method:
The antibodies were captured on a goat anti-Fc antibody-modified C1 chip and titrated with 3-fold serial dilutions of PSMA antigen spanning concentrations of 1 nM to 100 nM human PSMA. The association and dissociation were monitored for 3 and 30 minutes, respectively, using a flow rate of 50 μL/min. Raw binding data was referenced by subtracting the analyte binding signals from blanks and analyzed using a 1:1 Langmuir binding model by the Biacore Insight evaluation software to obtain the kinetics which were used to calculate the binding affinity. The anti-PSMA were captured using an anti-human Fc antibody and the antigens were injected in solution.
(SPR reads the build-up and loss of mass on a sensor chip optically.)
With B2, the Kd (as a rule, the free concentration of one partner at which half of the binding sites on the other are occupied at equilibrium, for simple one-to-one binding) is 1.61 nM; the koff (in general, the first-order rate constant of dissociation) was 0.000315 s⁻¹; the kon (commonly the rate constant with which the complex forms) came to 196000 M⁻¹ s⁻¹.
For B3 the same measures were 0.936 nM, 0.000492 s⁻¹ and 526000 M⁻¹ s⁻¹.
For B4 the same measures were 1.02 nM, 0.000119 s⁻¹ and 117000 M⁻¹ s⁻¹.
In the same order, the values of B5 are 1.42 nM, 0.000197 s⁻¹ and 139000 M⁻¹ s⁻¹.
Turning to B6, the Kd worked out at 2.52 nM, the koff came to 0.00175 s⁻¹ and the kon was found to be 694000 M⁻¹ s⁻¹.

In the next experiment the target is T1, Human CD3 epsilon (CD3ε), on primary …. In words: flow cytometry on human T cells, anti-human IgG Fc A647 detection. Here is the method:
The bsAbs were assayed for their abilities bind T cells and to induce T-cell mediated cytotoxicity against H929 cells (ATCC@CRL-9068™). […] Stain buffer with no antibody was added to bottom 4 wells and assign as background control (secondary antibody alone). Parental Cris7b, CD3B695 (bivalent mAb controls) and CD3B375 (bsAb which was monovalent for Cris-7b) were added also with full dose-response curves.
Frozen T-cells were thawed in a 37° C. water bath and transferred gently into conical tube containing warm 5 mL media (RPMI+10% FBS)/1 vial of 1×10⁶ cells. Cells were mixed and centrifuged for 5 minutes at 400×g followed by resuspension in flow staining buffer, and counted and viability checked. Cells were then plated in 50 uL/50,000 cells/well into assay plates. Assay positive control mAb was added in the first column in quadruplicates at 2× at 20 nM in the bottom 4 wells. Stain buffer with no mAb was added to the top 4 wells and assigned as background controls (secondary antibody alone). Serially diluted antibody samples were added at 50 uL/well using Intergra Viaflo according to the attached plate maps and incubated for 1 hr at 37° C. After one hour incubation, 150 uL staining buffer were added to all wells, and cells were spun at 500×g for 5 minutes to pellet cells. Cells were then washed prior to addition of Alexa Fluor 647 (A647) conjugated anti human IgG Fc specific secondary detection antibody at 2 ug/mL in staining buffer. Secondary detection antibody was added at 50 uL/well to the washed cells. Plates were covered with foil and incubated for 30 minutes on ice or in the fridge. 150 uL staining buffer were added to all wells, and cells were spun at 500×g for 5 min to pellet cells. Cells were resuspended in 20 uL running buffer containing 1:1000 dilution of SYTOX™ green dead cell stain and run plates on iQue® Screener flow cytometer (Essen BioScience, Inc.). Briefly, cells were gated on FCS vs. SCS dot plot to eliminate debris. Singlets were gated on SCS-A vs SCS-H dot plot and from singlet population, live cells gated choosing BL1 channel for low/negative with SYTOX™ green viability stain (Thermo Fisher).
For B1, the midpoint of the response, the EC50, lay at 300 nM.
